Laboratory results from the supplement of paper PMC9170038.

Tested on: MS2 coat protein
Assay: apparent KD of MS2 coat protein; designed switch direction (-1 OFF switch, 1 ON switch): -1; higher = weaker reporter binding
In short: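 RNA switches sharing common flanks were transcribed by stalled E. coli RNA polymerase on Illumina chips. A doubling series of SNAP-549-labelled MS2 coat protein, from 0.7 or 1.5 nM to 3 µM, was applied in Tris-HCl pH 7.5 buffer with KCl, MgCl2, BSA, DTT, tRNA and Tween-20. Each step lasted 0.8–1.5 h at the bottom of the series and 10–20 min at the top. Normalised cluster fluorescence was curve-fitted, giving apparent KD as the per-design median over clusters.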

[1] = Eterna round: R95, input ligand: FMN 200 uM
[2] = Eterna round: R95, input ligand: microRNA oligo, concentration not stated
[3] = Eterna round: R95, input ligand: none
[4] = input ligand: microRNA oligo, concentration not stated

| Sequence | apparent KD of MS2 coat protein [1] | apparent KD of MS2 coat protein [2] | apparent KD of MS2 coat protein [3] | apparent KD of MS2 coat protein (input ligand: FMN 200 uM) | apparent KD of MS2 coat protein [4] | apparent KD of MS2 coat protein (input ligand: none) |
| --- | --- | --- | --- | --- | --- | --- |
| GACGCUAAAGGAUAUACAUGAGGAUCACCCAUGUUGAGGAAGGUUAGAUGAGGAGUAAGUAGAAGGUUAGACGA [JR_Exclu3_Sub091] (puzzle: Exclusion 3) | 32 nM | 27.4 nM | 30.8 nM |  |  |  |
| CCGGGCCCGGGAGGAUAUACAUGAGGAUCACCCAUGUGGGCCCGGGCCCGCGGGCCCGGGCCCAUGUAGAAGGCCCGGGCCCGG [-64.8, -64.2 kcal, A 15%] (Eterna round: R96, puzzle: Exclusion NG 2) |  |  |  | 50 nM | 36.4 nM | 20.4 nM |
| UAUGGUUAAGUCAGGAUAUGCACGCAGAUUACAAUGCAGAAGGGACAUGAGGAUCACCCAUGUACACUCGUGUU [Ex4 #80] (Eterna round: R97, puzzle: Brourd's mod of Exclusion 4) |  |  |  | 40.7 nM |  | 31.8 nM |
| UUAAUUAAUUAACGCAGCAAGAUCACAUGAGGAUCACCCAUGUAGGAUAUCAGCUCGAUUAGAGCUGAGAAGGACAUAGCUGCG [ExNG3/1-A1] (Eterna round: R96, puzzle: Exclusion NG 3) |  |  |  | 103 nM | 18.2 nM | 17.5 nM |
| AUAAAACAUGAGGAUCACCCAUGUGAGGAUAUACGACUCCAACCUAACAGCUUGGACCGUAGAAGGCACAAGGG [Exclusion 1 (MOD3.2 Esqu)] (Eterna round: R97, puzzle: Exclusion 1) |  |  |  | 137 nM |  | 159 nM |
| UAUUGCGAGUGAGGAUAUGACAUGAGGAUCACCCAUGUAAAGGGAGUUGGCUAUAUAGCAAGUUUUCAGAAGGCACUACUGUAU [JR_ExcNG2_Sub007] (Eterna round: R96, puzzle: Exclusion NG 2) |  |  |  | 114 nM | 48.8 nM | 66.4 nM |
| AAAAGGACAGGAUAUUCGACUCGCAACAUGAGGAUCACCCAUGUGGUCGUCCAGUCGCUCGAAGAAGGGUUAAAAC [Cegeesbe] (puzzle: Exclusion 5) | 74.7 nM | 26.7 nM | 31.3 nM |  |  |  |
| GUGUAGUCAGGAUAUACAUAGGAAGAGAAGAGAAGAGAAGGACAUGAGGAUCACCCAUGUAGAAGGGACAGUGU [Excluse me!! 5 - Jieux - Exclusion 2] (puzzle: Exclusion 2) |  | 43.6 nM |  |  |  |  |
| GCAGCUAGUUCAGGAUAUCAGCACGAUUAGUGCUGAGAAGGGAACAUGAGGAUCACCCAUGUGAUCAAUGCUGCAAUUUUAAUU [ENG1/12-A1] (Eterna round: R96, puzzle: Exclusion NG 1) |  |  |  | 481 nM | 235 nM | 597 nM |
| AGUGUGUGGCAGGAUAUGCUGUUGAUUGGUGGAGCAGAAGGGUCUACAUGAGGAUCACCCAUGUAAGCGGUUGA [Ex6 #30] (Eterna round: R97, puzzle: Exclusion 6) |  |  |  | 125 nM |  | 36.5 nM |
| GCUGCACAUGUAGGAUAUCUGCACGUUUAGUGCAGAGAAGGACAUGAGGAUCACCCAUGUAGAUCAGCAGCAAUUAAUUUAAUU [ENG1/6-A3] (Eterna round: R96, puzzle: Exclusion NG 1) |  |  |  | 809 nM | 479 nM | 473 nM |
| CAGCCUCUUGUGAGGAUAUUCUGCUAAGCGAGGCGGAAGAAGGUACAUGAGGAUCACCCAUGUUGGCGGAAUAA [Eternabot (Original) Solution 21] (Eterna round: R97, puzzle: Brourd's mod of Exclusion 4) |  |  |  | 167 nM |  | 37.6 nM |
| AAGAAACAUGAGGAUCACCCAUGUGAGGAUAUAGAAAGAAAGAAAAGAAAAGAAAGAACUAGAAGGCACAAAGA [JR_Exclu1_Sub030] (puzzle: Exclusion 1) | 26.2 nM | 26.4 nM | 30.8 nM |  |  |  |
| AGUGUGUGGCAGGAUAUGCGAUUUGUAAGUGUUGCAGAAGGGUCUACAUGAGGAUCACCCAUGUGUGCGGUUGA [Ex6 #13] (Eterna round: R97, puzzle: Exclusion 6) |  |  |  | 658 nM |  | 516 nM |
| UCCUCCUAAGGAUAUGCGUCGGUUGAACUAUGCUAAAAGGGACAUGAGGAUCACCCAUGUAGAAGGUAGGGCAG [Eternabot (L2) Solution 86] (Eterna round: R97, puzzle: Exclusion 2) |  |  |  | 72.5 nM |  | 48.8 nM |
| CCGCCAUGAGGAUAUCCAUCUGGAUCAGACAAGAUCCUGAUGGAGAAGGGACAUGAGGAUCACCCAUGUUGCGG [Mat - Exclusion 4 - Eli Mod - D55] (Eterna round: R97, puzzle: Exclusion 4) |  |  |  | 60.4 nM |  | 60 nM |
| GUAAACGAAGAGGAUAUUUGAUAUCAAAGCUUCAAAGAAGGCUUCACAUGAGGAUCACCCAUGUGAUCUUCAAG [Mat - Exclusion 6 - JL Mod - D17] (Eterna round: R97, puzzle: Exclusion 6) |  |  |  | 404 nM |  | 28.4 nM |
